Test results published in paper PMC10397247.
Read-outs that look alike come from different tables or passages of the source.

T1: 4H2466-AA
T1 chain: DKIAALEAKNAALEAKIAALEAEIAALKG

T2: 4H3588-AA
T2 chain: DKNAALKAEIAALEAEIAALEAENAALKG

T3: 4H1845-AA
T3 chain: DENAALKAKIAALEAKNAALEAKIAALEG

T4: 4H3343-AA
T4 chain: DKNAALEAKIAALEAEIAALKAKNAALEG

T5: 4H3697-AA
T5 chain: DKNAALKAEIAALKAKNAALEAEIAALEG

T6: 4H678-AA
T6 chain: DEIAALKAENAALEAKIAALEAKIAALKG

T7: 4H3865-AA
T7 chain: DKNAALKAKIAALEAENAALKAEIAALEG

T8: 4H429-AA
T8 chain: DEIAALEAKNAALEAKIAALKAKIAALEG

T9: 4H2642-AA
T9 chain: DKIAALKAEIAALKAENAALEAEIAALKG

T10: 4H48-AA
T10 chain: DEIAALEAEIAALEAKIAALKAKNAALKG

T11: 4H3112-AA
T11 chain: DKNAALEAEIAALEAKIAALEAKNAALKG

T12: 4H3056-AA
T12 chain: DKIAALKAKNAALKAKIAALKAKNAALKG

T13: 4H2907-AA
T13 chain: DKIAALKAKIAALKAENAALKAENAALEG

T14: 4H1629-AA
T14 chain: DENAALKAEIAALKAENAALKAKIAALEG

T15: 4H881-AA
T15 chain: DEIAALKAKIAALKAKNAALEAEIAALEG

T16: P10-AA
T16 chain: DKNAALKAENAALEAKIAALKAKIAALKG

T17: 4H993-AA
T17 chain: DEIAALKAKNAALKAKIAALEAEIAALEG

T18: 4H3162-AA
T18 chain: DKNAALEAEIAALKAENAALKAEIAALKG

T19: 4H3427-AA
T19 chain: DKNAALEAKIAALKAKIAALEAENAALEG

T20: 4H2354-AA
T20 chain: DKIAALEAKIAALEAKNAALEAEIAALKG

T21: 4H2883-AA
T21 chain: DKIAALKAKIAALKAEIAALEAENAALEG

T22: 4H2277-AA
T22 chain: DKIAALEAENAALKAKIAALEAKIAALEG

T23: 4H317-AA
T23 chain: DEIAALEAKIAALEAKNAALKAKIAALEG

T24: 4H234-AA
T24 chain: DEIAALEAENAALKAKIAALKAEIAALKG

T25: 4H3073-AA
T25 chain: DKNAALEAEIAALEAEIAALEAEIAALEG

T26: 4H2931-AA
T26 chain: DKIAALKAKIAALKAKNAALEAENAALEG

T27: 4H2903-AA
T27 chain: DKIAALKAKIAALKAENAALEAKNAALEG

T28: 4H3129-AA
T28 chain: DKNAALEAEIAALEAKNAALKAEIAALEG

T29: 4H446-AA
T29 chain: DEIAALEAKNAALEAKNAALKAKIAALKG

T30: 4H3049-AA
T30 chain: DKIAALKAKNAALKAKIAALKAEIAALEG

T31: 4H2725-AA
T31 chain: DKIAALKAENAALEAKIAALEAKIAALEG

T32: 4H3009-AA
T32 chain: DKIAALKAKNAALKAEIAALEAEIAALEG

T33: 4H2649-AA
T33 chain: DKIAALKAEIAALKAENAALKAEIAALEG

T34: 4H536-AA
T34 chain: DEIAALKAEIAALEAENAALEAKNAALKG


Experiments:
Experiment in all cases: two-hybrid library CCmax;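 note: natural log of median RNA to DNA barcode read ratio; higher means stronger binding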
4H2466-AA = target: T1, 4H2466-AA; settings: mean of both orientations
4H3588-AA = target: T2, 4H3588-AA; settings: mean of both orientations
4H1845-AA = target: T3, 4H1845-AA; settings: mean of both orientations
4H3343-AA = target: T4, 4H3343-AA; settings: mean of both orientations
4H3697-AA = target: T5, 4H3697-AA; settings: mean of both orientations
4H678-AA = target: T6, 4H678-AA; settings: mean of both orientations
GCN2_T = target: GCN2_T
4H3865-AA = target: T7, 4H3865-AA; settings: mean of both orientations
4H429-AA = target: T8, 4H429-AA; settings: mean of both orientations
4H2642-AA = target: T9, 4H2642-AA; settings: mean of both orientations
4H48-AA = target: T10, 4H48-AA; settings: mean of both orientations
4H3112-AA = target: T11, 4H3112-AA; settings: mean of both orientations
4H3056-AA = target: T12, 4H3056-AA; settings: mean of both orientations
4H2907-AA = target: T13, 4H2907-AA; settings: mean of both orientations
4H1629-AA = target: T14, 4H1629-AA; settings: mean of both orientations
4H881-AA = target: T15, 4H881-AA; settings: mean of both orientations
P10-AA = target: T16, P10-AA; settings: mean of both orientations
4H993-AA = target: T17, 4H993-AA; settings: mean of both orientations
4H3162-AA = target: T18, 4H3162-AA; settings: mean of both orientations
4H3427-AA = target: T19, 4H3427-AA; settings: mean of both orientations
4H2354-AA = target: T20, 4H2354-AA; settings: mean of both orientations
4H2883-AA = target: T21, 4H2883-AA; settings: mean of both orientations
4H2277-AA = target: T22, 4H2277-AA; settings: mean of both orientations
4H317-AA = target: T23, 4H317-AA
4H234-AA = target: T24, 4H234-AA; settings: mean of both orientations
4H3073-AA = target: T25, 4H3073-AA
4H2931-AA = target: T26, 4H2931-AA; settings: mean of both orientations
4H2903-AA = target: T27, 4H2903-AA; settings: mean of both orientations
4H3129-AA = target: T28, 4H3129-AA; settings: mean of both orientations
4H446-AA = target: T29, 4H446-AA; settings: mean of both orientations
4H3049-AA = target: T30, 4H3049-AA; settings: mean of both orientations
4H2725-AA = target: T31, 4H2725-AA; settings: mean of both orientations
4H3009-AA = target: T32, 4H3009-AA; settings: mean of both orientations
4H2649-AA = target: T33, 4H2649-AA; settings: mean of both orientations
4H536-AA = target: T34, 4H536-AA; settings: mean of both orientations

| interaction score (4H2466-AA) | interaction score (4H1845-AA) | interaction score (4H3343-AA) | interaction score (4H3697-AA) | interaction score (4H678-AA) | interaction score (GCN2_T) | interaction score (4H3865-AA) | interaction score (4H429-AA) | interaction score (4H2642-AA) | interaction score (4H48-AA) | interaction score (4H3112-AA) | interaction score (4H881-AA) | interaction score (P10-AA) | interaction score (4H993-AA) | interaction score (4H3427-AA) | interaction score (4H2354-AA) | interaction score (4H2883-AA) | interaction score (4H2277-AA) | interaction score (4H234-AA) | interaction score (4H2931-AA) | Binder | also measured |
| --- | --- | --- | --- | --- | --- | --- | --- | --- | --- | --- | --- | --- | --- | --- | --- | --- | --- | --- | --- | --- | --- |
| -1.54 | -1.13 | -1.44 | -0.792 | -0.21 | -1.62 | 0.227 | 0.239 | 1.3 | 0.338 | -1.06 | -0.879 | -0.931 | -1.26 | -1.52 | -1.3 | -1.43 | -1.59 | 0.335 |  | DENAALEAKIAALKAKNAALKAEIAALEG [4H1401-AA] | interaction score (4H3588-AA): -0.275; interaction score (4H3056-AA): -1.2; interaction score (4H2907-AA): -1.63; interaction score (4H1629-AA): -1.08; interaction score (4H3162-AA): -0.375; interaction score (4H317-AA): -1.49 |
| -1.49 |  | -0.847 |  | -0.25 | -1.41 |  | -1.87 | 0.223 | -1.31 | -0.868 | 0.00404 |  | 0.0167 | -1.3 | -1.76 | -1.67 | -1.36 | -1.27 | -1.58 | DKIAALEAEIAALKAKNAALEAKIAALEG [4H2165-AA] | interaction score (4H3073-AA): -1.45; interaction score (4H317-AA; mean of both orientations): 0.575 |
|  |  |  |  |  | -1.96 |  |  |  |  |  |  |  |  |  |  |  |  |  | -1.53 | DEIAALEAENAALKAKNAALKAEIAALEG [4H249-AA] | interaction score (4H3073-AA; mean of both orientations): -1.75; interaction score (4H2903-AA): -0.757; interaction score (4H3129-AA): -2.01; interaction score (4H446-AA): -1.26; interaction score (4H3049-AA): -1.71 |
|  |  |  | 1.42 | -0.771 | -0.266 | 1.86 | 0.643 |  | -0.695 |  | 2.32 | 0.12 | 1.33 |  |  |  |  |  |  | DKNAALKAEIAALEAENAALEAKIAALKG [4H3606-AA] |  |
| -1.68 |  |  | -1.65 |  |  | -1.13 |  |  |  |  |  |  |  |  |  |  |  |  | -1.52 | DKIAALEAENAALKAEIAALKAKIAALEG [4H2253-AA] | interaction score (4H3073-AA; mean of both orientations): -0.681; interaction score (GCN2_T; mean of both orientations): -1.56; interaction score (4H2725-AA): -0.468; interaction score (4H3009-AA): 0.841; interaction score (4H2649-AA): -1.27; interaction score (4H536-AA): -1.37 |
|  | -1.49 |  |  |  | -1.92 |  |  |  |  | 0.173 |  |  |  | -1.17 |  |  |  |  |  | DENAALEAENAALKAKIAALKAEIAALEG [4H1257-AA] | interaction score (4H2903-AA): -1.62; interaction score (4H3129-AA): -1.9; interaction score (4H446-AA): -1.65; interaction score (4H3049-AA): -0.309 |
